We go through 1 molecule from article PMC9638900.

Changes are numbered by the printed parent chain.

The target of data set [1] is T1, PLE2 Int (large serine recombinase) (Vibrio cholerae PLE2 (satellite), UniProt M1T311 1-630).
T1 sequence: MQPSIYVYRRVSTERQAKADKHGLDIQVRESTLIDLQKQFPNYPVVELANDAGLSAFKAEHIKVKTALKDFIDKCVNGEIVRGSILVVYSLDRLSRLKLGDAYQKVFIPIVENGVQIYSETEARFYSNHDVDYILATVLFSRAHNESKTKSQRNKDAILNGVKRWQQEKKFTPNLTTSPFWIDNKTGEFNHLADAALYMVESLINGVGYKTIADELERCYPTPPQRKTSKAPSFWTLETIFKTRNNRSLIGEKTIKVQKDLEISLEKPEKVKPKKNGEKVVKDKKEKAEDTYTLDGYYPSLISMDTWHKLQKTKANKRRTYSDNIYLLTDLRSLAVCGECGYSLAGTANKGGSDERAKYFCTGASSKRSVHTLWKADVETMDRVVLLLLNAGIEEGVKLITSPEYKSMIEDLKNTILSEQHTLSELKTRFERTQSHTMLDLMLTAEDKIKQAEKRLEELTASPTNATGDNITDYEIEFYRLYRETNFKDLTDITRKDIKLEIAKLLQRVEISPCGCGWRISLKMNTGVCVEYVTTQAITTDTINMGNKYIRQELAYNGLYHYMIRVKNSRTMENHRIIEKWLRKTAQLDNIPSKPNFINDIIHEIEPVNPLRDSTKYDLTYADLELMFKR
Kind of data set: EMSA.

The target in the next data set is T2, PLE2 IntS12A (Vibrio cholerae PLE2 (satellite), UniProt M1T311 1-630, S12A).
T2 sequence: T1 sequence with S12A
The data set can be described thus: EMSA.

B1: PLE2 attP EMSA probe (MN262/MN263) (dsDNA)
DNA 1: GATAGGTCATTTTATACTTCTGACAAAGTTACATATGACTTGCATTAGTG
DNA 2: CACTAATGCAAGTCATATGTAACTTTGTCAGAAGTATAAAATGACCTATC
Turning to B1, the binding result (in data set [1]; with PLE2 IntS12A) was “binds” in each case.
